Assay results published in publication PMC4703882.

System: RAD51 wild type (Homo sapiens)
Test: EMSA
Conditions: 1 mM ATP, 2 mM Ca2+; saturated at 0.8 uM; EMSA: 50 mM Tris-HCl pH 7.5, 100 mM NaCl, 2 mM CaCl2, 1 mM ATP, 1 mM DTT, 5 nM DNA, 5 min at 37 C; 0.8% agarose in 1x TB (dsDNA) or 5% native PAGE in 0.5x TB …

How did the K half turn out when ds-66 bp-AF532 was run?
Its K half is 300 nM.
